In paper PMC3510486, “The structural basis for the interaction between the CAF1 nuclease and the NOT1 scaffold of the human CCR4–NOT deadenylase complex” (Nucleic Acids Research, 2012):

Biological target: T1, Hs CAF1, purified for crystallization (human, UniProt Q9UIV1-1 1-285)
T1 construct: human CAF1 (CNOT7); model holds residues Q10-S266 and G274-E280 (chain B); residues up to E280 are seen in the map, so it is probably the whole protein; also called CNOT7; source: E. coli Rosetta2, purified (GSTrap, PreScission cleavage, gel filtration)
Experiment: crystal structure; complex of purified NOT1 MIF4G and CAF1 (1.2:1) isolated by gel filtration; hanging drop, 4°C, 0.1 M Tris-HCl pH 8.2, 16% PEG 8000, 0.2 M MgCl2, 0.2 M ammonium sulfate; 2.70 Å
Settings: both partners purified

T1 sequence (Q9UIV1 whole entry, the tested form may be a part): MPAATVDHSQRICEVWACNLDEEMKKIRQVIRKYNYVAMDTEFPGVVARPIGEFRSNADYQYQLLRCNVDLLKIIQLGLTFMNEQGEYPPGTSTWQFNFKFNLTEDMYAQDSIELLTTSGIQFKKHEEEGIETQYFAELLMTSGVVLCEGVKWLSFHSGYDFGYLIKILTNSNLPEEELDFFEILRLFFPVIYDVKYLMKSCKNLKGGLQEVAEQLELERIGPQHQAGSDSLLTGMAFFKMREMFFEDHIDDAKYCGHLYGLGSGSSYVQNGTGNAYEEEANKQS

- binding result: binds
B1: MIF4G domain of Hs NOT1 (residues 1093-1317), purified for crystallization (domain or fragment, human, UniProt A5YKK6-1 1093-1317, looked up)
chain: ENIQEKIAFIFNNLSQSNMTQKVEELKETVKEEFMPWVSQYLVMKRVSIEPNFHSLYSNFLDTLKNPEFNKMVLNETYRNIKVLLTSDKAAANFSDRSLLKNLGHWLGMITLAKNKPILHTDLDVKSLLLEAYVKGQQELLYVVPFVAKVLESSIRSVVFRPPNPWTMAIMNVLAELHQEHDLKLNLKFEIEVLCKNLALDINELKPGNLLKDKDRLKNLDEQLS
notes: His6 fusion is PreScission-cleavable; also called NOT1 MIF4G domain; source: E. coli BL21 Codon Plus RIL, purified (Ni Sepharose IMAC, gel filtration)
